Results reported in patent EP4748858A1 (Nanjing Probio Biotech Co., Ltd., dated 2026).
Residue numbers refer to the chain shown, from its start.

B1: AHP19485-VHH1 CAR (other)
chain: EVQLVESGGGLVQPGGSLRLSCAASERIFSIHAMGWYRQAPGKQRELVSSITIGGSTHYADSVKGRFTISRDNSKNTLYLQMNSLRAEDTAVYYCNSMLLAGTVGGSWGQGTLVTVSSGGGSGGGSGGGSGGGSEVQLVESGGGLVQPGGSLRLSCAASERIFSIHAMGWYRQAPGKQRELVSSITIGGSTHYADSVKGRFTISRDNSKNTLYLQMNSLRAEDTAVYYCNSMLLAGTVGGSWGQGTLVTVSSAAADYKDDDDKIEVMYPPPYLDNEKSNGTIIHVKGKHLCPSPLFPGPSKPFWVLVVVGGVLACYSLLVTVAFIIFWVRSKRSRLLHSDYMNMTPRRPGPTRKHYQPYAPPRDFAAYRSRVKFSRSADAPAYQQGQNQLYNELNLGRREEYDVLDKRRGRDPEMGGKPRRKNPQEGLYNELQKDKMAEAYSEIGMKGERRRGKGHDGLYQGLSTATKDTYDALHMQALPPR
B2: AHP19509-VHH1 CAR (other)
chain: EVQLVESGGGLVQPGGSLRLSCAASGGTFNRYTMGWFRQAPGKEREFVSAISWSGGSTDYADSVKGRFTISRDNSKNTLYLQMNSLRAEDTAVYYCDTDRMPYRPVAAGILSWEANWGQGTLVTVSSGGGSGGGSGGGSGGGSEVQLVESGGGLVQPGGSLRLSCAASGGTFNRYTMGWFRQAPGKEREFVSAISWSGGSTDYADSVKGRFTISRDNSKNTLYLQMNSLRAEDTAVYYCDTDRMPYRPVAAGILSWEANWGQGTLVTVSSAAADYKDDDDKIEVMYPPPYLDNEKSNGTIIHVKGKHLCPSPLFPGPSKPFWVLVVVGGVLACYSLLVTVAFIIFWVRSKRSRLLHSDYMNMTPRRPGPTRKHYQPYAPPRDFAAYRSRVKFSRSADAPAYQQGQNQLYNELNLGRREEYDVLDKRRGRDPEMGGKPRRKNPQEGLYNELQKDKMAEAYSEIGMKGERRRGKGHDGLYQGLSTATKDTYDALHMQALPPR
B3: VHH6 CAR (other)
chain: DVQLQESGGGLVQAGGSLRLSCAVSGYPYSSYCMGWFRQAPGKEREGVAAIDSDGRTRYADSVKGRFTISQDNAKNTLYLQMNRMKPEDTAMYYCAARFGPMGCVDLSTLSFGHWGQGTQVTVSITGGGGSGGGGSGGGGSGGGGSDVQLQESGGGLVQAGGSLRLSCAVSGYPYSSYCMGWFRQAPGKEREGVAAIDSDGRTRYADSVKGRFTISQDNAKNTLYLQMNRMKPEDTAMYYCAARFGPMGCVDLSTLSFGHWGQGTQVTVSITAAADYKDDDDKIEVMYPPPYLDNEKSNGTIIHVKGKHLCPSPLFPGPSKPFWVLVVVGGVLACYSLLVTVAFIIFWVRSKRSRLLHSDYMNMTPRRPGPTRKHYQPYAPPRDFAAYRSRVKFSRSADAPAYQQGQNQLYNELNLGRREEYDVLDKRRGRDPEMGGKPRRKNPQEGLYNELQKDKMAEAYSEIGMKGERRRGKGHDGLYQGLSTATKDTYDALHMQALPPR
B4: AHP19484-VHH3 CAR (other)
chain: QVQLVESGGGLVKPGGSLRLSCAASGSSFHFAFMGWYRQAPGKQRELVADISPGNSTNYADPVKGRFTISRDNAKNSLYLQMNSLRAEDTAVYFCRDLRSWGAWGQGTLVTVSSGGGSGGGSGGGSGGGSQVQLVESGGGLVKPGGSLRLSCAASGSSFHFAFMGWYRQAPGKQRELVADISPGNSTNYADPVKGRFTISRDNAKNSLYLQMNSLRAEDTAVYFCRDLRSWGAWGQGTLVTVSSAAADYKDDDDKIEVMYPPPYLDNEKSNGTIIHVKGKHLCPSPLFPGPSKPFWVLVVVGGVLACYSLLVTVAFIIFWVRSKRSRLLHSDYMNMTPRRPGPTRKHYQPYAPPRDFAAYRSRVKFSRSADAPAYQQGQNQLYNELNLGRREEYDVLDKRRGRDPEMGGKPRRKNPQEGLYNELQKDKMAEAYSEIGMKGERRRGKGHDGLYQGLSTATKDTYDALHMQALPPR
B5: AHP19495 (Fc fusion)
chain: AVQLVESGGGLVQPGGSLRLSCAASGFTASRDVMSWYRQPPGKERELVASIFSAGSKETYAESVKGRFTISIDNVKNTVNLQMDNLKPEDTAVYYCHRWPGYWGQGTQVTVSS
notes: Alpaca VHH expressed as fusion to human IgG1 Fc; not shown: human IgG1 Fc of expression vector pcDNA3.4-Fc (HuIgG1)
B6: AHP19508 (Fc fusion)
chain: AVQLVDSGGGLVQPGGSLRLSCAASGDFARLYEMAWYRQTPGQQREVVAQITVGGSTKYADSVKGRFTISRDSAKNTVYLQMNSLRPEDTAVYYCHAWPALWGQGTQVTVSS
notes: as for B5
B7: AHP19481 (Fc fusion)
chain: AVQLVDSGGGLVQPGGSLRLSCAASGFTFSGFAMSWYRQAPGKERELVATISRFGESSNYEDSVKGRFTISRDNAKDTGYLQMNSLKPEDTAVYYCNAEAPAGSLWYGNNYWGQGTQVTVSS
notes: as for B5
B8: AHP19490 (Fc fusion)
chain: B7 chain with A1Q, D6E, A33D, E56G, A75V, G79V, N97Y, E99L, Y107H, N109D
notes: as for B5
B9: AHP19472 (Fc fusion)
chain: B7 chain with R19G, A33D, E46M, S52T, E56G, K76R, G79V, V93M, N97H, Y107F
notes: Alpaca VHH expressed as fusion to human IgG1 Fc in HEK293-6E; not shown: human IgG1 Fc of expression vector pcDNA3.4-Fc (HuIgG1)
B10: AHP19509-VHH1 (Fc fusion)
chain: EVQLVESGGGLVQPGGSLRLSCAASGGTFNRYTMGWFRQAPGKEREFVSAISWSGGSTDYADSVKGRFTISRDNSKNTLYLQMNSLRAEDTAVYYCDTDRMPYRPVAAGILSWEANWGQGTLVTVSS
notes: Humanized VHH of AHP19509 expressed as fusion to human IgG1 Fc; not shown: human IgG1 Fc of expression vector pcDNA3.4-Fc (Human IgG1)
B11: AHP19484-VHH3 (Fc fusion)
chain: QVQLVESGGGLVKPGGSLRLSCAASGSSFHFAFMGWYRQAPGKQRELVADISPGNSTNYADPVKGRFTISRDNAKNSLYLQMNSLRAEDTAVYFCRDLRSWGAWGQGTLVTVSS
notes: Humanized VHH of AHP19484 expressed as fusion to human IgG1 Fc; not shown: human IgG1 Fc of expression vector pcDNA3.4-Fc (Human IgG1)
B12: AHP19485-VHH1 (Fc fusion)
chain: EVQLVESGGGLVQPGGSLRLSCAASERIFSIHAMGWYRQAPGKQRELVSSITIGGSTHYADSVKGRFTISRDNSKNTLYLQMNSLRAEDTAVYYCNSMLLAGTVGGSWGQGTLVTVSS
notes: Humanized VHH of AHP19485 expressed as fusion to human IgG1 Fc; not shown: human IgG1 Fc of expression vector pcDNA3.4-Fc (Human IgG1)

biological target: T1, human CD7 expressed on cells (human, UniProt P09564 26-240); test: cell-based or functional assay
T1 sequence (looked up): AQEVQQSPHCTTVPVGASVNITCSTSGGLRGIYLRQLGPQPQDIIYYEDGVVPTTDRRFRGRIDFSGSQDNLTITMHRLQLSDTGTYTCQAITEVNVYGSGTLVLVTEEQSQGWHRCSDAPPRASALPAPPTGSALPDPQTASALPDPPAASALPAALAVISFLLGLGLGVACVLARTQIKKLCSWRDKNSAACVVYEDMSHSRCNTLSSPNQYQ

Binder	% Cytotoxicity of CAR-T cells against CCRF-CEM/Luc, E/T = 1 : 1 [%]	% Cytotoxicity of CAR-T cells against CCRF-CEM/Luc, E/T = 5 : 1 [%]	% Cytotoxicity of CAR-T cells against CCRF-CEM/Luc, E/T = 20 : 1 [%]
B1	57.4	61.2	78.2
B2	74.8	60.2	84.6
B3	74.5	51.2	71.1
B4	69.7	64.9	94.1

biological target: T1, human CD7 expressed on cells; test: cell-based or functional assay; remark: another data set of the same source

Binder	% Cytotoxicity of CAR-T cells against Jurkat/Luc, E/T = 1 : 1 [%]	% Cytotoxicity of CAR-T cells against Jurkat/Luc, E/T = 5 : 1 [%]	% Cytotoxicity of CAR-T cells against Jurkat/Luc, E/T = 20 : 1 [%]
B1	29.7	86	99.4
B2	62.4	93	99.6
B3	43.4	67.2	93.6
B4	60.5	94.5	100

biological target: T2, mouse CD7 (ACROBiosystems, CD7-M52H3) (mouse, UniProt P50283 24-150); test: indirect ELISA, plate coated with 1 µg/ml mouse CD7
T2 construct: Bought recombinant protein; also called Mouse CD7 protein
T2 sequence (looked up): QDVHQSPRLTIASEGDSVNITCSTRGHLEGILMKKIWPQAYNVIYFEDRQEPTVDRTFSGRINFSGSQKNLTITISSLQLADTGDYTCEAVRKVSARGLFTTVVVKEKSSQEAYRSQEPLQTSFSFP

Binder	binding result
B5	no binding (tested: 8 µg/ml (about 100 nM))
B6	no binding (tested: 8 µg/ml (about 100 nM))
B7	no binding (tested: 8 µg/ml (about 100 nM))
B8	no binding (tested: 8 µg/ml (about 100 nM))
B9	no binding (tested: 8 µg/ml (about 100 nM))

biological target: T3, recombinant protein of the human CD7 extracellular domain, CD7-His (human, UniProt P09564 26-180); test: SPR Biacore T200, antibody captured via Fc, human CD7 as analyte
T3 construct: range 25-645; also called human CD7-His protein; recombinant human CD7; not shown: His protein tag
T3 sequence (looked up): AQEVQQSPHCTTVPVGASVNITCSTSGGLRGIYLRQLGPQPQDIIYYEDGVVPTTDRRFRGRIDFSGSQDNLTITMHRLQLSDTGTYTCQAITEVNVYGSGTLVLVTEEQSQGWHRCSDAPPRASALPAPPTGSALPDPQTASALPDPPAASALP

Binder	Kd [nM]	koff [s⁻¹]	kon [M⁻¹ s⁻¹]
B10	0.1	3.04e-05	304000
B11	0.118	5.19e-05	440000
B12	0.131	3.18e-05	243000

biological target: T3, recombinant protein of the human CD7 …; test: indirect ELISA, plate coated with 1 µg/ml human CD7, anti-human IgG Fc-HRP

Binder	EC50 [nM]
B5	0.158
B6	0.2
B7	0.238
B8	0.268
B9	0.179
